Drawing on US20250163176A1, “MONOCLONAL ANTIBODY AGAINST TROP2 AND USE THEREOF” (INSTITUTE OF MEDICAL BIOTECHNOLOGY, CHINESE ACADEMY OF …, priority 2022, published 2025), this text covers IC50 for 1 molecule.

Test in all cases: cytotoxic activity against tumor cells cultured in vitro (CCK-8)
Common to all, as to type: cell-based

In one assay the test system is A549. The following applies: A549, 48 h culture. As to the method: (§1) Tumor cells in the logarithmic growth phase after subculture were selected and prepared into a single-cell suspension and cell counting was performed. The cell concentration was adjusted to 3×10^3 cells/well, and the cells were inoculated into a 96-well plate with 80 μL/well. After 24 h of incubation, 20 μL of anti-Trop2-IgG, LDM, and Anti-Trop2-IgG-LDM diluted to different concentrations were added, with three parallel wells for each concentration. After 48 h of culture, 10 μL of CCK-8 reagent was added to each well in the dark, followed by shaking for 3 min and incubation in an incubator for 1 h. The 96-well plate was taken and shaken for 2 min, and the OD value at 450 nm was measured using a microplate reader. In addition to the drug-treated groups at different concentrations, three parallel wells each for the drug-free control group and the cell-free blank group were set up.

A further assay deals with ECA109. The following applies: ECA109, 48 h culture. As to the method: as §1
The next assay has as its system KYSE150. The following applies: KYSE150, 48 h culture. On the procedure: as §1
A further assay concerns A431. The following applies: A431, 48 h culture. As to the method: as §1

B1: LDM: antitumor antibiotic lidamycin: protein LDP (SEQ ID NO:37) with bound active enediyne (AE) chromophore of Formula I (protein)
chain: APAFSVSPASGLSDGQSVSVSVSGAAAGETYYIAQCAPVGGQDACNPATATSFTTDASGAASFSFVVRKSYTGSTPEGTPVGSVDCATAACNLGAGNSGLDLGHVALTFG
modifications: bound enediyne chromophore
Take B1: the IC50 is 0.169 ± 0.017 nM with A549, 0.445 ± 0.034 nM in the assay on ECA109, 0.995 ± 0.008 nM in the assay with KYSE150 and 0.007 ± 0.002 nM with A431.
